{"source": "paper PMC8582233", "about": "(2021)", "binders": {"B1": {"name": "Recombinant DC-SIGN/CD209 (receptor)", "chain": "QVSKVPSSISQEQSRQDAIYQNLTQLKAAVGELSEKSKLQEIYQELTQLKAAVGELPEKSKLQEIYQELTRLKAAVGELPEKSKLQEIYQELTWLKAAVGELPEKSKMQEIYQELTRLKAAVGELPEKSKQQEIYQELTRLKAAVGELPEKSKQQEIYQELTRLKAAVGELPEKSKQQEIYQELTQLKAAVERLCHPCPWEWTFFQGNCYFMSNSQRNWHDSITACKEVGAQLVVIKSAEEQNFLQLQSSRSNRFTWMGLSDLNQEGTWQWVDGSPLLPSFKQYWNRGEPNNVGEEDCAEFSGNGWNDDKCNLAKFWICKKSAASCSRDEEQFLSPAPATPNPPPA"}, "B2": {"name": "Recombinant L-SIGN/CD299 (receptor)", "chain": "QVSKVPSSLSQEQSEQDAIYQNLTQLKAAVGELSEKSKLQEIYQELTQLKAAVGELPEKSKLQEIYQELTRLKAAVGELPEKSKLQEIYQELTRLKAAVGELPEKSKLQEIYQELTRLKAAVGELPEKSKLQEIYQELTELKAAVGELPEKSKLQEIYQELTQLKAAVGELPDQSKQQQIYQELTDLKTAFERLCRHCPKDWTFFQGNCYFMSNSQRNWHDSVTACQEVRAQLVVIKTAEEQNFLQLQTSRSNRFSWMGLSDLNQEGTWQWVDGSPLSPSFQRYWNSGEPNNSGNEDCAEFSGSGWNDNRCDVDNYWICKKPAACFRDE"}}, "molecular_target": "Recombinant SARS-CoV-2 S1 (SARS-CoV-2)", "assay": "MST", "data": [{"binder": "B1", "values": [{"measurement": "Kd", "result": 3.76, "unit": "nM"}]}, {"binder": "B2", "values": [{"measurement": "Kd", "result": 3.27, "unit": "nM"}]}]}
